{"source": "patent EP1379283B1", "about": "“IDENTIFICATION OF TARGET-SPECIFIC FOLDING SITES IN PEPTIDES AND PROTEINS” (Palatin Technologies, Inc., priority 2000, dated 2002)", "key": {"vasopressin-1 receptor": {"target": "T1, vasopressin-1 receptor (Rattus norvegicus, UniProt P30560)", "T1 construct": "cell membranes prepared from rat liver; from tissue; host or cells: rat liver membranes", "T1 sequence (P30560 whole entry)": "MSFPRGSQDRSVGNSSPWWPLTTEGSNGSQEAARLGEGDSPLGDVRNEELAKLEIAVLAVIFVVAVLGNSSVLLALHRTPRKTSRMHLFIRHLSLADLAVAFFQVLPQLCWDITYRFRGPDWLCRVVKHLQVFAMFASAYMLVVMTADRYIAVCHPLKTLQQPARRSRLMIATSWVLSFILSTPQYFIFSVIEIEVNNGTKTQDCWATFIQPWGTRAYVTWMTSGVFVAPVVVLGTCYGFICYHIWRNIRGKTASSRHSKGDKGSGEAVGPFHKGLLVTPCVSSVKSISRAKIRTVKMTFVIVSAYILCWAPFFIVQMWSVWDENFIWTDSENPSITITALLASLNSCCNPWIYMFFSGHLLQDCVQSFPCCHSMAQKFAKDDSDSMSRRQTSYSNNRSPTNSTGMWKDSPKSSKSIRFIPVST", "assay": "vasopressin-1 receptor binding, 3H-vasopressin-1 antagonist, cell membranes from rat liver", "settings": "Table 30, oxytocin ligand library", "procedure": "The screening of compounds for vasopressin-1 receptor was performed using cell membranes prepared from rat liver. The assay was essentially performed as described above for the oxytocin receptor assay. In this assay 2-4 nM ^3H-vasopressin-1 antagonist (obtained from Perkin Elemer- NEN Life Sciences) was used as the radiotracer and Arg^8-vasopressin (1 µM final concentration in the assay) was used to determine non-specific binding. The assay was performed in triplicates. Activity profile for the test compounds were generated by their ability to inhibit specific binding of the radiotracer to its receptor."}, "oxytocin receptor": {"target": "T2, oxytocin receptor (Rattus norvegicus, UniProt P70536)", "T2 construct": "cell membranes prepared from rat uterus; from tissue; host or cells: rat uterus membranes", "T2 sequence (P70536 1-388)": "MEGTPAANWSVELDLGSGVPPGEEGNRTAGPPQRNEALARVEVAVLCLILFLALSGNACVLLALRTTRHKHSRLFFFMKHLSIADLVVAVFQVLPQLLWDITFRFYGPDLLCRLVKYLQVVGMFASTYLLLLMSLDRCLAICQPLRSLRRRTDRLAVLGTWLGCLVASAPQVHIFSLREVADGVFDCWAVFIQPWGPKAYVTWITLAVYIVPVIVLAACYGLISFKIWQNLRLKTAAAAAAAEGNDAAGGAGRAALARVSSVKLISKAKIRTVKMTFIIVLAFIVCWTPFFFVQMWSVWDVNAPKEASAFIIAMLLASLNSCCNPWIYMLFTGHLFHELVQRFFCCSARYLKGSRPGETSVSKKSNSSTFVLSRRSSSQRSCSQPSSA", "assay": "oxytocin receptor binding, 3H-oxytocin, cell membranes from rat uterus", "settings": "for % Inhibition at 1 µM Oxytocin Receptor: Table 30, oxytocin ligand library, rat uterus membranes, 3H-oxytocin; for activity at oxytocin receptor: conclusion from Table 30", "procedure": "The screening of metallopeptides for binding to oxytocin receptor was done using cell membranes prepared from rat uterus. […] The membrane preparations (10 - 50 µg/well) were incubated with 412-800 pM ^3H-oxytocin in HEPES Buffer containing 0.2% bovine serum albumin along with a test compound (1 µM final assay concentration) for 2 hours at 4° C. Non-specific binding was determined by addition of 10^-6 M oxytocin instead of the test compound. After incubation, the membranes were filtered and washed three times with ice-cold PBS. The membranes were air-dried and punched directly into scintillation vials. After addition of the scintillation cocktail, the vials were capped and gently shaken for 12 hours to dissolve the radioactivity contained in the filters. The vials were then read for tritium counts in a scintillation counter. Specific binding was determined as the radioactivity in wells containing ^3H-oxytocin alone minus the radioactivity in wells containing 10^-6 M oxytocin. The assay was performed in triplicates. The activity profile for the test compounds were generated by their ability to inhibit specific binding of the radiotracer to its receptor."}}, "note": "Ends that are not written are not given here."}
{"substance": "Ala-Tyr-Cys-Ile-Gln-Asn-Ala-Pro-Leu-Gly-NH2 (AYCIQNAPLG-NH2; not fully specified (bridges); printed as Ala-Tyr-Cys-Ile-Gln-Asn-Ala-Pro-Leu-Gly-NH2; also: oxorhenium(V) N3S1 metal chelate (X-X-Cys)) [SEQ ID NO:158]", "values": [{"measurement": "% Inhibition at 1 µM Vasopressin-1 Receptor", "setting": "vasopressin-1 receptor", "result": 1, "unit": "%"}, {"measurement": "% Inhibition at 1 µM Oxytocin Receptor", "setting": "oxytocin receptor", "result": 6, "unit": "%"}]}
{"substance": "Ala-Tyr-Ile-Cys-Gln-Asn-Ala-Pro-Leu-Gly-NH2 (AYICQNAPLG-NH2; not fully specified (bridges); printed as Ala-Tyr-Ile-Cys-Gln-Asn-Ala-Pro-Leu-Gly-NH2; also: oxorhenium(V) N3S1 metal chelate (X-X-Cys)) [SEQ ID NO:157]", "values": [{"measurement": "% Inhibition at 1 µM Vasopressin-1 Receptor", "setting": "vasopressin-1 receptor", "result": 0, "unit": "%"}, {"measurement": "% Inhibition at 1 µM Oxytocin Receptor", "setting": "oxytocin receptor", "result": 0, "unit": "%"}]}
{"substance": "Ala-Tyr-Ile-Gln-Asn-Ala-Ala-Cys-Leu-Gly-NH2 (AYIQNAACLG-NH2; not fully specified (bridges); printed as Ala-Tyr-Ile-Gln-Asn-Ala-Ala-Cys-Leu-Gly-NH2; also: oxorhenium(V) N3S1 metal chelate (X-X-Cys)) [SEQ ID NO:152]", "values": [{"measurement": "% Inhibition at 1 µM Vasopressin-1 Receptor", "setting": "vasopressin-1 receptor", "result": 1, "unit": "%"}, {"measurement": "% Inhibition at 1 µM Oxytocin Receptor", "setting": "oxytocin receptor", "result": 0, "unit": "%"}]}
{"substance": "Ala-Tyr-Ile-Gln-Asn-Ala-Ala-Leu-Cys-Gly-NH2 (AYIQNAALCG-NH2; not fully specified (bridges); printed as Ala-Tyr-Ile-Gln-Asn-Ala-Ala-Leu-Cys-Gly-NH2; also: oxorhenium(V) N3S1 metal chelate (X-X-Cys)) [SEQ ID NO:151]", "values": [{"measurement": "% Inhibition at 1 µM Vasopressin-1 Receptor", "setting": "vasopressin-1 receptor", "result": 0, "unit": "%"}, {"measurement": "% Inhibition at 1 µM Oxytocin Receptor", "setting": "oxytocin receptor", "result": 0, "unit": "%"}]}
{"substance": "Ala-Tyr-Ile-Gln-Asn-Ala-Ala-Leu-Gly-Cys-NH2 (AYIQNAALGC-NH2; not fully specified (bridges); printed as Ala-Tyr-Ile-Gln-Asn-Ala-Ala-Leu-Gly-Cys-NH2; also: oxorhenium(V) N3S1 metal chelate (X-X-Cys)) [SEQ ID NO:150]", "values": [{"measurement": "% Inhibition at 1 µM Vasopressin-1 Receptor", "setting": "vasopressin-1 receptor", "result": 0, "unit": "%"}, {"measurement": "% Inhibition at 1 µM Oxytocin Receptor", "setting": "oxytocin receptor", "result": 0, "unit": "%"}]}
{"substance": "Ala-Tyr-Ile-Gln-Asn-Ala-Cys-Ala-Leu-Gly-NH2 (AYIQNACALG-NH2; not fully specified (bridges); printed as Ala-Tyr-Ile-Gln-Asn-Ala-Cys-Ala-Leu-Gly-NH2; also: oxorhenium(V) N3S1 metal chelate (X-X-Cys)) [SEQ ID NO:154]", "values": [{"measurement": "% Inhibition at 1 µM Vasopressin-1 Receptor", "setting": "vasopressin-1 receptor", "result": 0, "unit": "%"}, {"measurement": "% Inhibition at 1 µM Oxytocin Receptor", "setting": "oxytocin receptor", "result": 31, "unit": "%"}, {"measurement": "activity at oxytocin receptor", "setting": "oxytocin receptor", "result": "active"}]}
{"substance": "Ala-Tyr-Ile-Gln-Asn-Ala-Cys-Pro-Leu-Gly-NH2 (AYIQNACPLG-NH2; not fully specified (bridges); printed as Ala-Tyr-Ile-Gln-Asn-Ala-Cys-Pro-Leu-Gly-NH2; also: oxorhenium(V) N3S1 metal chelate (X-X-Cys)) [SEQ ID NO:153]", "values": [{"measurement": "% Inhibition at 1 µM Vasopressin-1 Receptor", "setting": "vasopressin-1 receptor", "result": 0, "unit": "%"}, {"measurement": "% Inhibition at 1 µM Oxytocin Receptor", "setting": "oxytocin receptor", "result": 2, "unit": "%"}]}
{"substance": "Ala-Tyr-Ile-Gln-Asn-Ala-Pro-Leu-Gly-Cys-NH2 (AYIQNAPLGC-NH2; not fully specified (bridges); printed as Ala-Tyr-Ile-Gln-Asn-Ala-Pro-Leu-Gly-Cys-NH2; also: oxorhenium(V) N3S1 metal chelate (X-X-Cys)) [SEQ ID NO:149]", "values": [{"measurement": "% Inhibition at 1 µM Vasopressin-1 Receptor", "setting": "vasopressin-1 receptor", "result": 0, "unit": "%"}, {"measurement": "% Inhibition at 1 µM Oxytocin Receptor", "setting": "oxytocin receptor", "result": 6, "unit": "%"}]}
{"substance": "Ala-Tyr-Ile-Gln-Asn-Cys-Ala-Pro-Leu-Gly-NH2 (AYIQNCAPLG-NH2; not fully specified (bridges); printed as Ala-Tyr-Ile-Gln-Asn-Cys-Ala-Pro-Leu-Gly-NH2; also: oxorhenium(V) N3S1 metal chelate (X-X-Cys)) [SEQ ID NO:155]", "values": [{"measurement": "% Inhibition at 1 µM Vasopressin-1 Receptor", "setting": "vasopressin-1 receptor", "result": 0, "unit": "%"}, {"measurement": "activity at oxytocin receptor", "setting": "oxytocin receptor", "result": "maximal activity"}]}
{"substance": "Ala-Tyr-Ile-Gln-Cys-Asn-Ala-Pro-Leu-Gly-NH2 (AYIQCNAPLG-NH2; not fully specified (bridges); printed as Ala-Tyr-Ile-Gln-Cys-Asn-Ala-Pro-Leu-Gly-NH2; also: oxorhenium(V) N3S1 metal chelate (X-X-Cys)) [SEQ ID NO:156]", "values": [{"measurement": "% Inhibition at 1 µM Vasopressin-1 Receptor", "setting": "vasopressin-1 receptor", "result": 0, "unit": "%"}, {"measurement": "% Inhibition at 1 µM Oxytocin Receptor", "setting": "oxytocin receptor", "result": 18, "unit": "%"}, {"measurement": "activity at oxytocin receptor", "setting": "oxytocin receptor", "result": "active"}]}
